Assay results: the DeepSol protein solubility set

assay: soluble on expression in E. coli; label from the status in PepcDB or PDB records

Row | Sequence | soluble on expression in E. coli
1 | MGSDKIHHHHHHMDRKMNFVMISPHFPANFETFAHRLYENGINTLGIADTPYEQLSQGLRDHLTEYYRVDNMEDYDQVYRAVAYFAHKYGRIDRIESHNEYWLELDAHLRTDFNVFGYKNEDMLSIKTKARMKEIFRKTGIKVARGRVFTSTEDARALTKELGFPVIIKPNSGVGASDTYKIKSAEELEDFFGYQNPTVDYIMEEFIDGDIVTFDGLTDHEGNIVFYSSLEYSEAVLDTVEKDNDMFYYVPRDISPELIKLGEQCVEAFNVKERFFHFEFFRIKKTKDLMALEVNCRPPGGLTIDMWDYANDFDVFNEYAHIVKDNRFEAHITRPYNVVYIARKANKHYAHSIEDIETKFGHHIIEIESVPGIFAKIMGEVGILARTETMNEMRDIICFAHAKI | not soluble
2 | MGSDKIHHHHHHMDSEFANAVELSYECAPLLESLKEYSEKDIACFDVPGHVKNRGVAILNKYLGESLMKMDINSSPTMDNVSAPNGIIKNAQDLLAQAYMADEAFFITNGTTQAIHAMILSVIKPGEKVLLPRNIHKSVINALILCGGIPIFIQPEFDEKLGISLNITLEKVRTEIEKDCNIKALFFLNPTYYGVCADLESIIELCHKNNVLVLVDEAHGAHFPFHLDLPPSAISLGADMVAVSIHKTGGALTQSSALLLNRDNVSFEKVLQSINMLQSTSASYLLMASIDGARVNLVENGEKQLSKALNLSRYAKSKLNKIDGIKVLSTEILKQKGVKFIDETKLCINVKELNLTGFEVYDLLYKNFSIQVELGDSYNILALVSIGTNKSDIDRLVKALSIIAKVYRKESTLNEFNMVQINPIIKLNPREAFYAPKESVEINSCIDRICGESIMAYPPGIPIIAPGELITEEIMEYIIFLKNSNAYLTDVQDKNLDRILVIK | not soluble
3 | MGSDKIHHHHHHMDTSIKKKRVRGRLLREMIEDAAFEVIEKEGLAGFSMRKLAAALGCEAMSIYHHFPSVAHLHEALVDRLVGALEMPDASLPWRQRMRIAIEDFRSIGRDHPAYATFFVTYRMNSPICLAWLNGILSLFRDGGFDTELSARLFRAVGYYLMGAVLDENAGYAKGPSAVNTVSDEQLARDFPNVMAAGRFFGTAEFDKTFELGLDMLLDEMERLRDGADAGQLSGKV | not soluble
4 | MGSDKIHHHHHHMDWLSKHYQQQKGYDELVGEGAVPRLPAAPLFDYLSTLDSSELRARRQAADAAILAMGITFTVYSEAGDIDRAWPFDIIPRILSRREWMRIEEGLKQRLQALNLFIDDIYNAQRIVVDGVFPAEVLASSRNFREACRGVHPPFGVWAHICGSDLVRDADGTVYVLEDNLRVPSGVSYMLENRQIMKRLFPELFKSSTILPVDDYPNRLYDTLAALSPREGERPVVAVLTPGIYNSAYFEHSYLAQQMGAYLAEGADFFVSRDDIVYLRTISGPQRVDVIYRRIDDEYMDPEVFFTDSALGIPGLLRAWRRGTVAIANAPGAGVADDKVVYAFVPDIIRYYLGAEPILPNVPTYLCMREADRDYVLSHLHELVVKPANESGGYGMLIGPRATSEERGRFAELIAANPRNYIAQPTLNLSTAPTLVEDHLEARHLDLRPFILQADKLYVTTGGLTRVAMQPGSLVVNSSQGGGSKDTWIVDEEAPCFRA | not soluble
5 | MGSDKIHHHHHHMDYRKYFEKLKSDYVYLDNAATTPPLKSVMKKALEFLENYSSIHRGTGYLAKMSTDSYENSRRVIGEYLHATKDDVVVFTANTTDSINKFALLYPFMGNEGVLISDIEHSSNMLPWFKNSGRVKMFNTGKSNKINPYSIEEELYRNPQIKIVSICGASNLTGYLTPLRDIYKICKKYGVYLLVDASQIAPHFKITLDDCDFIAFSGHKMYAPFGAGVLAGRKDVLSHIGLAPTGGGNIVYIGKRGEVIYKEPPLSLEAGTPNGLGAVTVAEAMRVLNEDIGWENMNQHNKRINEIGYKYLSDLSNIKLYYPKDQDIRINRTPTFVFDFKNVGTKVGCDILKENKIGVRCGTFCLYRLIEKVKNIDEYERKRLYRNYIVPNRELPERYSLVRASAGLMTTEEDFLRLRAAIKKVE | not soluble
6 | MGSDKIHHHHHHMDYSSKDIKSIISEILDKKKAKGGVKSIYVVGCGGSLGALYPAKTFMEKECTSIKSAWINSSEFIHSTPKDFGVNSIICLACHKGNTPETIAAAKLGKEMGATVIILTWLKESEIIEFGDYIIRYTFDASPDHLKGDIDYSGEKTICALLVAVELLAQTEGYENYNKFYEGTKMISNIIKNARNHVAERAVKFAEKYKDDSVIYTMGSGASYGAAYMESICIFMEMQWLNSSSIHTGEYFHGPFEITDANRPFMIQISEGSTRDLDERALKFLNTYAKRIEVLDAKELGLSTIDASVVDYFNHSLFNNVYPIYNHELATKREHPLPTRRYMWKVEY | not soluble
7 | MGSDKIHHHHHHMECSGLYPRRNRSSHNQSEFQVSFMATELSALPANHPRVTFGKVGVLLVNLGTPDGTDYWPMRRYLAEFLSDKRVIEWSRLYWYPILYGIVLNKRPQKVGKAYEEIWNHERNESYLRTYTRSQGELMAAALKDFPNVVVDWAMRYGQPSIASRIDALKEQGCEKILLFPLYPQYAASTTATVNDKAFEHLMKLRWQPAIRTVPPYHDDPAYIEGLAASVKNHLATLDWEPEMLITSFHGIPQSYFKKGDPYYCHCQKTARLLREALGRTEKNFMITFQSRFGPEEWLQPYTDKTVEKLASEGIKRIAVMNPGFVSDCLETLEEIAGEAGEIFLHNGGEKFTHIPCLNDSTEGMNVLEKVVRRELQGWV | not soluble
8 | MGSDKIHHHHHHMEFTKKSKLKNMYVNMNVARMLSKINEYKGRQLLYKKQPKEILENLEKKSLVDCSESTYIGNQRDSSNFNLEKLISNEVTPRSREELSIVEYRDVVKTINSAYESIPISSQTILELHGYLYKFSSTRGGSYKSDNDFIEHNLKPSEFISTDSSVNKVEKAVEEICEAYNTLIEEDEIDILILISAFVLDFILIHPFKEGNIKMARVLILLLLNKNGYEVGRYISLGKIFDDSSYEYYSNLNYLKASIGSEKADMNAWIEYFLETILTAYEKLDDSLNISDKKRQTKTSRIEKIINSTLGYFTKEDIRDLCPDIPEPTINRVFNNLRKQDKIEVVARGRSAKWKKKY | not soluble
9 | MGSDKIHHHHHHMEHIEKLNAVLKHIKTSFVGKDEIIDLLGISLIARENAFLLGPPGTAKSAIIRALSACISDGKNFEYLLTRFTEPGELFGPFDIRKLKEGDLVTNTEGMMPEASMVFLDEIFNANSAILNSLLTALNERIFRRGKETKKLPALMFIGASNVLPEDESLNALLDRFLIRARCDYVDTDLLEEVLVAGWNLETRNQNQKPAIAPAEIIELQQYAKQVDVSTVRRQYVDLIHNLRNTGIKISDRRAVKIQNLLAASAVMSNRKEVIPSDLWVLKHVWDTEEQIEILEGIINTIIEKDTNPLAHPQAQYNKTPNAEELIKEIIQLTEKWESGNLSFEEQNVVKDKLRYLQTRSNWIKNNEHKLHIQEKIESLWHKMLQTI | not soluble
10 | MGSDKIHHHHHHMEIRPEMFGQARAGAAWPDFGKPHVLRCDTGRSALKLALQCWAGRAGRDFTVWLPHYVCHSVAQAVRQAGHALAYYGHRPSEQIFSPPPTPQAGDLVLLVHYFGLRNRAALDWLSAHATRDFAVLEDCVQSPYTAGVGRLADFAISSLRKWWPTPDGATLASVYALDGLDLAASDEAFISQRMAAKQLRARGIGEERYLQWIDESESRLDDVVPRQASWLAASLLGEADIDVAMAARRENWFALAQGLAGLRGVAPLFRELAVDEIPLAYPVVVSATNRQKLRAALRDRRVFCPVHWDLESDAPEADTLLSARILSIPLDQRYAPADMRKVASMIGEFIAEELN | not soluble
11 | MGSDKIHHHHHHMEKQNNHIDRRGFLKIVGISAATTTAALYGCGSGTKSSQGRNASSPVPTDQMTYRSVGGIKDKVSLLGYGCMRWPTVPSPEGKGDLINQEAVNELVDYAIAHGVNYFDTSPVYVQGWSEKATGIALKRHPREKLYIATKLSNFSNFSRENSLAMYHQSFKDMQVEYFDYYLLHAIGGGGMKVFNERYIDNGMLDFLLKEREAGRIRHLGWSFHGDVEVFDQVLAMHDTVKWDFVQIQLNYVDWRHATGNNVNAEYLYGELAKRNIAAVIMEPLLGGRLSNVPEHIVGRLKQRRPEDSVASWAFRFAGSPELVLTVLSGMTYMEHLQDNIRTYSPLVPLTDDDKEYLEETAQLMMQYPTIPCNDCKYCMPCPYGIDIPAILVHYNKCVNEGNIPQSQTSENYKEARRAFLVGYDRSVPKLRQASHCIGCNQCTPHCPQSIHIPEELHRIDRFVEQLKQGTL | not soluble
12 | MGSDKIHHHHHHMEMKMQQIDILRKLSEVWRLFGDMPDDTTLSVDLAALYLGISVKTLARYRQSGGGPSYIQYQSEGSQARNQRVNYLLKDLRSWRDNHKVSNTMHAAQVRGLAFDSLLDFCKPQPFWQVTDKSSSRDKSKILSHALTIPDDDFKKKLLEPNADIVWISIEEALFNEWQTADERQKWNDIFKEFLNEIISASNAAQEKHILNAILK | not soluble
13 | MGSDKIHHHHHHMENFVRNSKLNIEKEIKRIEQQPIALLERIKQIIDVIQTSLTLLKRAVAEYQFQNPEEEIQFFKVWKPQISGLLMFYIRLYQIEKNRVGKSLSAQCKYLKMELENIQKSFLNNSFYDYYRAGQTELDNQYFIRENYDILSDVHCHLLDRDSSFTTLHDSSVAMILANSHLIEYVSDEIDSLSDKLHLKFTSIVDSKLLQWTDSKVALVEFIYAIYAGKCFNNGNTSLKDIAFCCEILFNIEIGDFYRIFLEIRNRKKSRTQFLDKLKDKIQKMMEELDR | not soluble
14 | MGSDKIHHHHHHMENIMLQEIELKLAISPQIGIELPQYLAKFTILEHQNLFLGNTYYDYPDHFLAKQKMGLRIRQEDQELTLTLKTNGKVVSGLHSRPEYNLPLIEKETPTNAQLRGLYPFEQLPSSTLQPIFSTDFNRTFWLVEFQQSKIEVAFDQGKIIAGEYEQPISEIEFELKSGNVQDLFDFVETLPFERDIYFSSASKAKRGYLLGSKQFLTDWLNKWRDFLKEEREESAVDFCAKFNAVLKMEQKLLEETLSFSPTLFSQDFMKTVERVGAFFNLYHYYDENGKILEAMATEKQKETRLPALLESNQKIFVEIRDLIRFHSETKDNEKTIEKLTALLKSRVYFERMIKLMELSYDLG | not soluble
15 | MGSDKIHHHHHHMEQQIPFSYVIISPENATEKEGYMISTIDKCGFFFCQKGEVEVALNDKSYLISKGSVCIYMTGSLLRIQRISKDIKGIMLEVDLNYIIPIVNKIVNSENLLYLRENPCFSITEYQYNYLEQLIKALQQRMDIKAHDIPLQRQHLISELIKSWGQTLCYELLNVYFTNQPLKPLSQDKKDKIFQNFVITLFRYYQQERDVTFYASKQYLSSRYFSAVIKEKSGSTALQWIVQMVITEAKQLLENSDLTIKEIATKLNFPTQSFFGKYFKQYVGVSPKEYRNKQIRQLPF | not soluble
16 | MGSDKIHHHHHHMEQYKEVHINSLNKEELEKLAKMGQLIDVRTKEEYELGHINGSTLHPVEEIKSFNKNSNKTYYIHCKSGNRSTKACDYLAKQGYDVVNLKGGYKDYEAKNFNSAPLIEKDIEIKENRKQFDFRGLQCPGPIVNISKEINNISTGEQIEVTVTDPGFNSDIKSWAKQTGNTLVNLTEEANVINAIIQKEKPKEFEINDTATGTTIVLFSGELDKAVAAMIIANGAKAAGKDVTIFFTFWGLNALKKAQSTRVKKKGISKMFDLMLPKDPIHMPLSKMNMFGLGNIMMRYVMNKKNVDSLYSLIDQAIDQDIKLIACTMSMDVMGISKEELRDEVDYGGVGTYIGHTEQANHNLFI | not soluble
